Measurements taken from patent publication US10752921B2, “Enzymes and methods for styrene synthesis” (Phytogene, Inc., priority 2012, dated 2020).
Positions count from the first letter of the chain named. Numbers in names are those of the source.

Key:
[1] = target: T1, FDC1 (Saccharomyces cerevisiae, UniProt Q03034); test: Temperature stability of FDC1; type: biochemical
T1 construct: N-terminal 6xHis leader of vector pDEST17 (own knowledge of the vector); made in house; host or cells: E. coli BL21 (DE3)
T1 sequence (Q03034 1-503): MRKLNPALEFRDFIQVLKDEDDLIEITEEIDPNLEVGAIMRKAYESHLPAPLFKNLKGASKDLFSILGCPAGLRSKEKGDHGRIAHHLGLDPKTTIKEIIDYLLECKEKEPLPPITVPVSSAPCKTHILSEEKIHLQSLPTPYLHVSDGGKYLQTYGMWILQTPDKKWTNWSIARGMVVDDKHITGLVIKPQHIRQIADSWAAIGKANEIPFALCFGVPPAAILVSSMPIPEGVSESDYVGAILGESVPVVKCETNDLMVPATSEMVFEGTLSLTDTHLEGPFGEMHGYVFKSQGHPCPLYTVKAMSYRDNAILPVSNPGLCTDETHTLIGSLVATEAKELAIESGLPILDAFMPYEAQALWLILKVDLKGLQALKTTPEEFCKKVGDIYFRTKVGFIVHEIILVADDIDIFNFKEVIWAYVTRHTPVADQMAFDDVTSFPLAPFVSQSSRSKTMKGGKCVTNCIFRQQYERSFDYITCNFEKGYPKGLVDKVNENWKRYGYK
Protocol: After incubation at various temperatures, an aliquot of protein (42 mg) was added to 25 mM potassium phosphate buffer pH 6.5, 5 mM DTT, and 1.4 mM tCA to a final volume of 1 mL. The reaction mixtures were incubated for 8 minutes at 30° C. The styrene was extracted with 250 μl butanol and quantified by HPLC using C18 column. The experimental negative control used the same conditions except the reaction mixture contained no substrate. The enzyme was stable at 50° C. (FIG. 7).
After the protein was incubated for various times, an aliquot (42 mg) was added to 25 mM potassium phosphate buffer pH 6.5, 5 mM DTT, and 1.4 mM tCA to a final volume of 1 mL. The reaction mixtures were then incubated for 8 minutes at 30° C. Styrene was extracted by adding 250 μL butanol to the reaction mixtures and quantified by HPLC. The experimental negative control used the same conditions except the reaction mixture contained no substrate. The protein was stable at 50° C. for 2 hr (FIG. 8).

[2] = target: T1, FDC1; test: pH stability of FDC1; type: biochemical; settings: incubated for 30 minutes at pH 6.0 prior to the reaction
Protocol: The protein (crude extract, 586 μL) was added to 112 μL of 500 mM buffers at pH values of 5, 6, 7, 8, 9, 10, and 11, and incubated at 30° C. for 30 minutes. After treated in various pH buffers, an aliquot of protein (42 mg) was added to a final concentration of 100 mM potassium phosphate buffer pH 6.5, 5 mM DTT, 1.4 mM cinnamic acid and brought up to a final volume of 2 mL. The reaction mixture was then incubated for 8 minutes at 30° C. The styrene was extracted by the addition of 250 μL butanol. The experimental negative control used the same conditions except the reaction mixture contained no substrate. […] This protein is stable and active in a wide range of pH and can be used for industrial production of styrene.

[3] = target: T1, FDC1; test: Kinetic analysis of purified wild type FDC1 (tCA to styrene, HPLC); type: biochemical; settings: for Km / Vmax: tCA as substrate (100-2000 μM), 0.5 mg purified protein, 5 min at 30° C.
Protocol: The standard reaction mixture for decarboxylation consisted of 25 mM potassium phosphate buffer (pH 6.5) containing 5 mM dithiothreitol, 1.4 mM trans-cinnamic acid and enzyme (0.50 mg) to a final volume of 1.0 mL. The reaction was started by the addition of the enzyme and was incubated at 30° C. for 5 min. The reaction was stopped by adding 24 μl of glacial acetic acid (17.4N) after which 2-propanol was added in equal volume to the reaction mixture in order to solubilize the product. The amount of styrene produced was measured by HPLC using a Dionex Ultimate3000 UHPLC equipped with an auto sampler, diode array (UV/Vis) detector, and reverse phase Acclaim 120 C18 column (2.1×150 […] Dionex USA). Samples (10 μl) were injected for analyses at a total constant flow rate of 0.6 ml/minute. The samples were resolved in 0.15% acetic acid (A) with an increasing concentration gradient of acetonitrile containing 0.15% acetic acid (B) for 0 to 4 min, 5%; 4 to 5 minutes, 5 to 40%; 5 to 7 min, 40 to 45%; 7 to 8 min, 45 to 85%; 8 to 12 min, 85 to 95%; 12 to 14 minutes, 95 to 5% at a flow rate of […]. The specific activity was expressed in U (nmol styrene)·mg^−1·min^−1.
To examine the catalytic efficiency of this protein, kinetic studies of FDC1 was conducted using tCA as the substrate. […] The reactions were performed in a total of 1.0 mL standard reaction mixture with 0.5 mg purified protein, and were allowed to proceed for 5 min at 30° C. The styrene was extracted with 250 μL butanol. The experimental negative control used the same conditions except the reaction mixture contained no substrate. Activities were quantified by standard assay method. Duplicate assays were performed and averaged. The Vmax and Km were determined by nonlinear regression analysis of the velocity-concentration data fit to the Michaelis-Menten equation.

[4] = tested on: styrene production; test: Styrene production by wild type FDC1 in anaerobic versus aerobic condition; type: cell-based
Protocol: Production of styrene by maintaining the culture in an aerobic environment was conducted. […] Using the STRATA-X® column, we can trap the volatile styrene and can maintain aerobic conditions.

[5] = tested on: styrene production; test: Expression of FDC-PAL2 fusion protein in E. coli, styrene in medium; type: cell-based; settings: expressed in E. coli
Text: Artificial channels were included in the styrene production. To construct the fusion protein of PAL2 and FDC using Gateway technology, four primers were designed for PCR amplification. […] The FDC gene (˜1.5 kb) and the PAL2 gene (2.2 kb) were amplified using the above primers and cloned into the Gateway vector pDEST17. The constructs of the fusion protein of PAL2 and FDC were transformed to BL21(DE3). Fusion proteins of FDC mutant and PAL also can be obtained by the above process.
This fusion protein produced styrene at an amount that was about 6-fold higher than that of FDC expressing in E. coli (95 mg/Lin medium). This amount of styrene was also much higher than that of non-fused proteins of PAL2 and FDC (expressed in yeast, with 69 mg/L styrene detected).

[6] = tested on: styrene production; test: Production of styrene from trans-cinnamic acid in E. coli BL-21 (DE3); type: cell-based; settings: fed 0.1% trans-cinnamic acid, 36 hours, STRATA X column
Protocol: The nucleotides encoding FDC wild type, FDC mutant (K190E), FDC (WT)-PAL fusion protein, and FDC (K190E)-PAL fusion protein were transformed in E. coli BL-21 (DE3). The cells were grown in LB at 30° C. for overnight. The cells were harvested and washed with M9 media. The cells were inoculated to 2.0 ml M9 media with the initial OD600 at 0.3 and were cultured at 30° C. until the OD600 of the culture reached to 0.6 to 0.8. The cells were then induced with 0.2 mM IPTG for 8.0 hours at 30° C. The cells transformed with FDC wild type and FDC (K190E) were fed with 0.1% trans-cinnamic acid. The cells transformed with FDC (WT)-PAL and FDC (K190E)-PAL fusion proteins were fed with either 0.1% trans-cinnamic acid or 0.1% L-phenylalanine. The fed cells were continuously cultured for 36 hours. STRATA X column was used to collect styrene. The product was eluted from the column by butanol and the amount was quantified by HPLC.

[7] = tested on: styrene production; test: Styrene production by FDC1 mutants from tCA (colorimetric screening, confirmed by HPLC); type: cell-based; settings: E. coli cells, tCA 1 g/L, 30° C. for 4 hours
Protocol: Saturation mutagenesis allows the change of one amino acid to 19 other alternative amino acid residues. […] The codon NNK has 32-fold degeneracy and encodes all 20 amino acids without rare codons. The QuikChange PCR products were examined by agarose gel electrophoresis and then 15 μl of PCR products were digested with 1 μl Dpnl (New England Biolabs) at 37° C. for 4 hours to remove the template plasmid. Aliquots of (2 μl) digestive products were transformed into BL21-Gold (DE3) competent cells (STRATAgene, CA) and inoculated on Luria-Bertani (LB) agar plates containing kanamycin. The quality of the library by DNA sequencing was confirmed. The library covers 90% of mutagenesis (17 mutants out of 19). To cover 100% (19 out of 19 mutant), we screened 150 mutants for each site.
The transformants (Example II.2) were inoculated in 96-well plates (NUNC, Roskilde, Denmark) containing 100 μl LB broth per well and incubated at 37° C., overnight. The cultures were then mixed with equal amount of 50% glycerol and stored at −80° C. as the master plate. An aliquot of 10 μl culture was inoculated in 2 ml deep-well plates (USA scientific) with 1 ml TB broth per well and incubated at 37° C. until the OD600 reached 1.0. The cultures were then induced by 0.2 mM IPTG and incubated at 18° C. for 20 hours with shaking at 250 rpm.
Cells were harvested and suspended with 0.25 ml PBS buffer at pH 7.0 and the substrate (tCA) was added at a final concentration of 1 g/L. The culture was incubated at 30° C. for 4 hours and the volatile product styrene was collected by using 96 well STRATA-X® reversed phase plate containing 10 mg polymer based resin (Phenomenex) on top of the culture plate (FIG. 19). To avoid styrene vapor diffusion, 96-square well silicone sealing mats with pre-slit were used between 96-well culture plate and 96 well STRATA-X® reversed phase plate. The product was collected by 200 μl propanol for each well and the amount of product was measured by colorimetric method.
Various chemicals were tested as an indicator for styrene detection, including NBP (4-nitrobenzyl-pyridine) as a preferred indicator. Styrene was mixed with cytochrome P450 BM-3 in 50 mM phosphate buffer pH 8.0. The styrene oxidation reaction was started by adding 0.2 mM NADPH, and the reaction mixture was incubated at room temperature for 5 minutes with shaking. The NBP solution was added to the mixture and incubated at room temperature for further 5 minutes with shaking which gives white precipitate. The tube or plate containing reaction mixtures were heated at 70° C. for 30 minutes and chilled on ice for 5 minutes. After adding Dimethylformamide (150 μl) and 25 μl of 1M K2CO3, the reaction mixture gave blue color that can be measured spectrophotometrically at 600 nm immediately. The […] of NBP reacts with the oxirane ring of styrene oxide to yield a blue chromophore a blue color that can be monitored spectrophotometrically at 600 nm.
The mutants showing higher activity were confirmed by HPLC using an ACQUITY UPLC BEH C18 column (1.7-μm, 2.1×50-mm, Waters, USA). The samples were resolved in 30% acetonitrile (A) with an increasing concentration gradient of acetonitrile (B) for 1 min, 95%; then to 1 min, 30%; at a flow rate of 1 ml/min. UV absorption was monitored at 254-, 280-, and 310-nm. The changed amino acid residues in the mutants showing the higher activity were confirmed by DNA sequence.

B1: FDC1: Saccharomyces cerevisiae cinnamic acid decarboxylase, also termed ferulic acid decarboxylase; 503 amino acids, SEQ ID NO:8 (protein, listed as Saccharomyces cerevisiae)
chain: T1 sequence (Q03034 1-503)
Question: For B1, which activity retained ([1]; after incubation at 50° C. for about 2 hours) is on record?
Answer: 100%

Question: What about the “stability at 50° C. over time” value ([1]; crude extract incubated at 50° C. for 2 hr) of the same molecule?
Answer: stable

Question: What about the temperature stability ([1]; incubated 30 minutes at 50° C. prior to reaction) of the same molecule?
Answer: stable

Question: What about the “relative activity after incubation at 50° C.” value ([1]; incubated at 50° C. for 30 minutes prior to the reaction) of the same molecule?
Answer: 100%

Question: What about the “relative activity after incubation at pH 6.0” value [2] of the same molecule?
Answer: 100%

Question: What about the catalytic efficiency ([3]; tCA as substrate) of the same molecule?
Answer: 8.4 M^−1 S^−1

Question: And the Km ([3]; listed as wild type FDC)?
Answer: ~688 µM

Question: What about the Vmax ([3]; listed as wild type FDC) of the same molecule?
Answer: about 6.17 nmol·mg^−1·min^−1

Question: And the Km ([3]; listed as wild type FDC1)?
Answer: 688 µM

Question: And the Vmax ([3]; listed as wild type FDC1)?
Answer: 6.17 nmol/mg/min

Question: What about the “amount of styrene in anaerobic condition compared to aerobic condition” value [4] of the same molecule?
Answer: half the amount of styrene

Question: What about the styrene in medium [5] of the same molecule?
Answer: 95 mg/L

B2: K190E (protein)
chain: T1 sequence (Q03034 1-503) with K190E
Question: B2 was tested. Which styrene produced [6] did it give?
Answer: 758 mg/L

Question: What about the “amount of styrene compared to that of wild type (in words)” value [7] of the same molecule?
Answer: significantly higher amount of styrene

Question: And the “styrene produced compared to wild type” value [7]?
Answer: 3 times
